Experiments:
[1] = target: T1, tyrosine kinase receptor MET on HeLa cells (UniProt P08581 25-1390, limits assumed); assay: cell-based or functional assay
[2] = target: T1, tyrosine kinase receptor MET on HeLa …; assay: cell-based or functional assay; remark: listed apart in the source

T1 sequence (P08581 25-1390 limits assumed): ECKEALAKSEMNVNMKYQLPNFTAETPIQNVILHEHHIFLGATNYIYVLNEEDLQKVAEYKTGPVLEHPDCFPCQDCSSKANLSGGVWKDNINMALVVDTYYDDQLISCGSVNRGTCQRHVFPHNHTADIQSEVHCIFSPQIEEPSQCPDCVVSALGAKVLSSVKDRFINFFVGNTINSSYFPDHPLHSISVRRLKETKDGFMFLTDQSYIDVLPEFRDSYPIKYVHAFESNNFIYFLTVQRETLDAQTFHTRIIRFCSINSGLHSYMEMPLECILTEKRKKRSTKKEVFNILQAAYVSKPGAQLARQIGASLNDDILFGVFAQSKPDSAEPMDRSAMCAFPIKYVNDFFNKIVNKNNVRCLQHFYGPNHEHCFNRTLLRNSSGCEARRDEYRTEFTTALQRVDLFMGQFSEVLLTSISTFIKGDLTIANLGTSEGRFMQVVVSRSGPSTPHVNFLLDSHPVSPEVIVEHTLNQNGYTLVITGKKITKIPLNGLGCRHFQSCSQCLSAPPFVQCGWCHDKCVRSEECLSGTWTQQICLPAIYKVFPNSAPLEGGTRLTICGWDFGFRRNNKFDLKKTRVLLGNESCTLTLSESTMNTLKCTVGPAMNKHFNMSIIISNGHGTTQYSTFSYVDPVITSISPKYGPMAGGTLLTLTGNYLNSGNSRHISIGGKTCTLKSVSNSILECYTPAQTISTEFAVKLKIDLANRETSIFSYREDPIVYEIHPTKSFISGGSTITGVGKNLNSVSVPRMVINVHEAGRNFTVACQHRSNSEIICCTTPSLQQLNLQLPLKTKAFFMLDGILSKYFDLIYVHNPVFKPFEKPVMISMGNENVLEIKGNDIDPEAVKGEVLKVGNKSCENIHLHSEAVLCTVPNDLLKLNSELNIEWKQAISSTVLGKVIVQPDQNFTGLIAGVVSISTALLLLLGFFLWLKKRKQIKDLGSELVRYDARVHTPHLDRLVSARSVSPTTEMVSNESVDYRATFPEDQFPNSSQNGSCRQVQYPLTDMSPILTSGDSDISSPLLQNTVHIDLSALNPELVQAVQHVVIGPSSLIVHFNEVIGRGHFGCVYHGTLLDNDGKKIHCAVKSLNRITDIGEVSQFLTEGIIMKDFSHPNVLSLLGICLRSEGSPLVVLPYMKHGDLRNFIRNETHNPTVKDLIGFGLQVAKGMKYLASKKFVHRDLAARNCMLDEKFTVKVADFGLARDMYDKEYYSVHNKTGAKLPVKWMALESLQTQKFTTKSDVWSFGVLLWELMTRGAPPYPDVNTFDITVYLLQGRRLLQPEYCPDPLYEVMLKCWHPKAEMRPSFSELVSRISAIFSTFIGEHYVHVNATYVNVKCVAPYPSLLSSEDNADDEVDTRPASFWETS

Binder	ERK and Akt phosphorylation in HeLa cells (western blot, ALPHAScreen) [1]	MET phosphorylation in HeLa cells (western blot) [1]	agonist activity against NK1 (ERK and Akt phosphorylation in HeLa cells) [1]	EC50 (read off the curve), Akt phosphorylation (P-AKT) [P-AKT] [2]	EC50 (read off the curve), ERK phosphorylation (P-ERK) [P-ERK] [2]
K1K1 variant 3 (GS-linker variant) (designed binder) MAIRNCIIGKGRSYKGTVSITKSGIKCQPWSSMIPHEHSFLPSSYRGKDLQENYCRNPRGEEGGPWCFTSNPEVRYEVCDIPQCGSGGCIIGKGRSYKGTVSITKSGIKCQPWSSMIPHEHSFLPSSYRGKDLQENYCRNPRGEEGGPWCFTSNPEVRYEVCDIPQCSEVE	~100 pM	100 pM	≥ 10 times (against NK1)		
K1K1 variant 1 (tagless variant) (designed binder) MAIRNCIIGKGRSYKGTVSITKSGIKCQPWSSMIPHEHSFLPSSYRGKDLQENYCRNPRGEEGGPWCFTSNPEVRYEVCDIPQCSEVECIIGKGRSYKGTVSITKSGIKCQPWSSMIPHEHSFLPSSYRGKDLQENYCRNPRGEEGGPWCFTSNPEVRYEVCDIPQCSEVE	~100 pM	100 pM	≥ 10 times (against NK1)		

More lines, now with the values ahead:

ERK and Akt phosphorylation in HeLa cells (western blot, ALPHAScreen) [1]	MET phosphorylation in HeLa cells (western blot) [1]	agonist activity against NK1 (ERK and Akt phosphorylation in HeLa cells) [1]	EC50 (read off the curve), Akt phosphorylation (P-AKT) [P-AKT] [2]	EC50 (read off the curve), ERK phosphorylation (P-ERK) [P-ERK] [2]	Binder
~100 pM	100 pM	≥ 10 times (against NK1)			K1K1 variant 2 (long linker variant) (designed binder) MAIRNCIIGKGRSYKGTVSITKSGIKCQPWSSMIPHEHSFLPSSYRGKDLQENYCRNPRGEEGGPWCFTSNPEVRYEVCDIPQCGGGGSLVPRGSGGGGSCIIGKGRSYKGTVSITKSGIKCQPWSSMIPHEHSFLPSSYRGKDLQENYCRNPRGEEGGPWCFTSNPEVRYEVCDIPQCSEVE
~100 pM	100 pM	≥ 10 times (against NK1)	~0.03 nM	~0.03 nM	HGF/SF-K1K1 (C-terminally tagged K1K1 protein, 6xHis tag) (designed binder) MAIRNCIIGKGRSYKGTVSITKSGIKCQPWSSMIPHEHSFLPSSYRGKDLQENYCRNPRGEEGGPWCFTSNPEVRYEVCDIPQCSEVECIIGKGRSYKGTVSITKSGIKCQPWSSMIPHEHSFLPSSYRGKDLQENYCRNPRGEEGGPWCFTSNPEVRYEVCDIPQCSEVEHHHHHH

Reference: US20170369545A1 (CENTRE NATIONAL DE LA RECHERCHE SCIENTIFIQUE, published 2017)
